Where a chain is given by its changes, count along the chain named.
B1: ORF3-HA (HA-tagged wild-type HEV ORF3 protein, Kernow C1/p6) (other)
chain: MGSPCALGLFCCCSSCFCLCCPRHRPASRLAVVVGGAAAVPAVVSGVTGLILSPSPSPIFIQPTPSPPISFHNPGLELALGSRPAPLAPLGVTSPSAPPLPPAVDLPQLGLRR
notes: Expressed by lentivirus in HepG2C3A cells and tested in cell lysate; also called HEV ORF3-HA; HA-tagged ORF3; not shown: HA tag; the name ORF3-HA puts it at the C-terminus
B2: ORF3[IFI59-61AAA], HA-tagged (other)
chain: B1 chain with I59A, F60A, I61A
notes: Alanine triplet mutant of Kernow C1/p6 ORF3; also called ORF3[IF159-61AAA]; not shown: HA tag

How the values were obtained:
[1] = target: the molecule itself; test: Western blot (anti-HA) of lysates from cells expressing ORF3-HA; self-association
[2] = target: the molecule itself; test: Western blot (anti-HA) of HepG2C3A lysates; self-association

Protein | binding result [1] | binding result [2]
B1 | binds | 
B2 |  | binds

From patent US10883980 (TRUSTEES OF PRINCETON UNIVERSITY, dated 2021)
